{"source": "paper PMC9482650", "about": "“Quantitative fragmentomics allow affinity mapping of interactomes” (Nature Communications, 2022)", "binders": {"B1": {"name": "CTNNB1, P35222 (peptide)", "chain": "NQLAWFDTDL"}, "B2": {"name": "ACOT6, Q3I5F7 (peptide)", "chain": "GKKSVKHSKI"}, "B3": {"name": "SHROOM3, Q8TF72 (peptide)", "chain": "GIFPTLTSPL"}}, "assay_in_all_cases": "holdup assay", "parameters_in_all_cases": "key: below the threshold = too weak to quantify, mostly under pKd 3.1 to 4", "key": {"[1]": {"target": "T1, APBA1_2, Q02410", "T1 sequence (Q02410 742-832, limits assumed, looked up)": "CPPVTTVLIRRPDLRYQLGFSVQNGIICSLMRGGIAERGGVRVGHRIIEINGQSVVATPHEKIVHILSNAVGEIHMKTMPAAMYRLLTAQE"}, "[2]": {"target": "T2, APBA2_1, Q99767", "T2 sequence (Q99767 563-664, limits assumed, looked up)": "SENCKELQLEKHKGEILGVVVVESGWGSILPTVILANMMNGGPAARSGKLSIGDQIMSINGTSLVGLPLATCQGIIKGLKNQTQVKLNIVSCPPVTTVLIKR"}, "[3]": {"target": "CASK, O14936", "sequence (O14936 487-570)": "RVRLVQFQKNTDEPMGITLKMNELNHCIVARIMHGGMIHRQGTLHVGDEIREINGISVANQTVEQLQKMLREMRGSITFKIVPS"}, "[4]": {"target": "DLG1_3, Q12959", "sequence (Q12959 457-571)": "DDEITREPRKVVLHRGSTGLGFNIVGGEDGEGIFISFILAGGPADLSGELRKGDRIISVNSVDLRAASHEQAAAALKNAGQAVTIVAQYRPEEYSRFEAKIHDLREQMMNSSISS"}, "[5]": {"target": "T3, DLG3_3, Q92796", "T3 sequence (Q92796 374-475, limits assumed, looked up)": "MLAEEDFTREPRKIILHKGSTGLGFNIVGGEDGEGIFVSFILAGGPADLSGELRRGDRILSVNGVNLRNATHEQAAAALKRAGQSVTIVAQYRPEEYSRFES"}, "[6]": {"target": "DLG4_3, P78352", "sequence (P78352 306-403)": "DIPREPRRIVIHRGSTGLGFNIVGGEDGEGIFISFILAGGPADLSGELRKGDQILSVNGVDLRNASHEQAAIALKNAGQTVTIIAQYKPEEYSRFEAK"}, "[7]": {"target": "T4, DVL3, Q92997", "T4 sequence (Q92997 244-331, limits assumed, looked up)": "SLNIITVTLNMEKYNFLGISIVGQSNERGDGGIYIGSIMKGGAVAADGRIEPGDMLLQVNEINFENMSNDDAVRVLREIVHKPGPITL"}, "[8]": {"target": "T5, FRMPD1, Q5SYB0", "T5 sequence (Q5SYB0 52-145, limits assumed, looked up)": "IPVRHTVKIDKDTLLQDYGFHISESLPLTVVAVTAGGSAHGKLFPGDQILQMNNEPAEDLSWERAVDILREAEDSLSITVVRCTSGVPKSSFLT"}, "[9]": {"target": "FRMPD2_1, Q68DX3", "sequence (Q68DX3 770-861)": "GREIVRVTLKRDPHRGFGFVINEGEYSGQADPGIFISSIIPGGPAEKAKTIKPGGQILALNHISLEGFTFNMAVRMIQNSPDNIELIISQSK"}, "[10]": {"target": "FRMPD2_2, Q68DX3", "sequence (Q68DX3 944-1038)": "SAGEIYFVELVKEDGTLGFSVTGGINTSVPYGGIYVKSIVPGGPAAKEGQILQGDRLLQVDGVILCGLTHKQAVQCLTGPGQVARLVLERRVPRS"}, "[11]": {"target": "FRMPD2_3, Q68DX3", "sequence (Q68DX3 1073-1166)": "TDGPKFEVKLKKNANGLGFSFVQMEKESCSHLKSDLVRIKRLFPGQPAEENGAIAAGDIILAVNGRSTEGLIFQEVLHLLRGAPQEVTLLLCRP"}, "[12]": {"target": "GOPC, Q9HD26"}, "[13]": {"target": "GORASP1, Q9BQQ3", "sequence (Q9BQQ3 1-208)": "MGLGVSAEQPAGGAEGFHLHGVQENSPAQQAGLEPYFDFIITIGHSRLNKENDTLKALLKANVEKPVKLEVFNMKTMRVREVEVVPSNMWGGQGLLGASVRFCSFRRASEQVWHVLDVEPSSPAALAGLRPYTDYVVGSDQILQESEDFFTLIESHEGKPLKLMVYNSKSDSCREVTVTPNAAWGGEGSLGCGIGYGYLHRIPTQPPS"}, "[14]": {"target": "T6, GRIP1_7, Q9Y3R0", "T6 sequence (Q9Y3R0 999-1096, limits assumed, looked up)": "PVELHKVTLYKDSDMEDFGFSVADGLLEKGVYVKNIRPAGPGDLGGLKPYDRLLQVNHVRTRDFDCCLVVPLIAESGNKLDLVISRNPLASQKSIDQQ"}, "[15]": {"target": "Inadl_1, Q8NI35", "sequence (Q8NI35 113-229)": "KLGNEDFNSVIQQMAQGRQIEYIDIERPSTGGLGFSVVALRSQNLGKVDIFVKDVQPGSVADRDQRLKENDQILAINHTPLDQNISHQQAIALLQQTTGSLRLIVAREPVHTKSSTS"}, "[16]": {"target": "Inadl_5, Q8NI35", "sequence (Q8NI35 673-780)": "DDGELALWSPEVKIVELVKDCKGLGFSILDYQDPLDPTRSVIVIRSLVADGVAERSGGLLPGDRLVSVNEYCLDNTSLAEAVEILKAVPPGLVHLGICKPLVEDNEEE"}, "[17]": {"target": "LAP2, Q96RT1", "sequence (Q96RT1 other isoform, or with tags, fused parts or gaps)": "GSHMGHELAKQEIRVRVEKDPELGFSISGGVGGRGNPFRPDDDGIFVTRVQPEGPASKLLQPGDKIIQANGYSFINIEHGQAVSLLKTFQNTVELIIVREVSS"}, "[18]": {"target": "T7, LIN7C, Q9NUP9", "T7 sequence (Q9NUP9 88-185, limits assumed, looked up)": "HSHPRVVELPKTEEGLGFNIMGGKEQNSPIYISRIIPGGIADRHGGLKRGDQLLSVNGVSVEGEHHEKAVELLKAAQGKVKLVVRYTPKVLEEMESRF"}, "[19]": {"target": "LNX1_3, Q8TBB1", "sequence (Q8TBB1 500-596)": "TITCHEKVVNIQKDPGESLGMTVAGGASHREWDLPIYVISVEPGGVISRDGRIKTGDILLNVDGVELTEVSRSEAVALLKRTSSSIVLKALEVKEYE"}, "[20]": {"target": "MAGI2_4, Q86UL8", "sequence (Q86UL8 772-865)": "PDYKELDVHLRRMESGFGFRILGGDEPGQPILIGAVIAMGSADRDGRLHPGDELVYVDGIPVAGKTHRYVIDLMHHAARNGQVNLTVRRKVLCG"}, "[21]": {"target": "MAGI2_6, Q86UL8", "sequence (Q86UL8 1141-1229)": "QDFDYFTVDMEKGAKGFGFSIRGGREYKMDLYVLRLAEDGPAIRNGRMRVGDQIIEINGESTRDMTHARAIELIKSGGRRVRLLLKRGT"}, "[22]": {"target": "T8, MPDZ_5, O75970", "T8 sequence (O75970 695-796, limits assumed, looked up)": "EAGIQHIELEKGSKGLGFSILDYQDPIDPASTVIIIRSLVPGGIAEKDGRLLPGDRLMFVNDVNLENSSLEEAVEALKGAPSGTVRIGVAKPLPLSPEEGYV"}, "[23]": {"target": "NOS1, P29475", "sequence (P29475 9-101)": "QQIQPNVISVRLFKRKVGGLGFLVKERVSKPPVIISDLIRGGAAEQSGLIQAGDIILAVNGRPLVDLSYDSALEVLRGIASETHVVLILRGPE"}, "[24]": {"target": "T9, PDZD7_3, Q9H5P4", "T9 sequence (Q9H5P4 857-944, limits assumed, looked up)": "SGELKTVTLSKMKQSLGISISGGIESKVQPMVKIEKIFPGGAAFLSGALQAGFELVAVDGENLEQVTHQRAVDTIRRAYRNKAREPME"}, "[25]": {"target": "SCRIB_2, Q14160", "sequence (Q14160 857-960)": "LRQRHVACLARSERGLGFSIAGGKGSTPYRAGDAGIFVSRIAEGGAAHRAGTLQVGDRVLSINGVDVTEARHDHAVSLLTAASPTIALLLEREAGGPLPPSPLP"}, "[26]": {"target": "T10, SHANK1, Q9Y566", "T10 sequence (Q9Y566 658-767, limits assumed, looked up)": "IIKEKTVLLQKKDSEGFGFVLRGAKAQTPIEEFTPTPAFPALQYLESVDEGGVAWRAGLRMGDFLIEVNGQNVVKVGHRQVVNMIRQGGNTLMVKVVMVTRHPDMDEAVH"}, "[27]": {"target": "T11, SNTB1, Q13884", "T11 sequence (Q13884 107-205, limits assumed, looked up)": "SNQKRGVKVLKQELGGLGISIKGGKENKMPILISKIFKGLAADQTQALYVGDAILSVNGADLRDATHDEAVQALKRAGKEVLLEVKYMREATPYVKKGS"}, "[28]": {"conditions": "plain residues with an end cap or a label only (N-terminal biotin on a linker: ttds)"}, "[29]": {"conditions": "plain residues with an end cap or a label only (N-terminal biotin on a linker: ado-ado)"}, "[30]": {"conditions": "plain residues with an end cap or a label only (N-terminal biotin on a linker: ahx)"}}}
{"binder": "B1", "values": [{"measurement": "pKd", "setting": "[1]; [28]", "result": "below the threshold"}, {"measurement": "pKd", "setting": "[2]; [28]", "result": "below the threshold"}, {"measurement": "pKd", "setting": "[3]; [28]", "result": "below the threshold"}, {"measurement": "pKd", "setting": "[4]; [28]", "result": "below the threshold"}, {"measurement": "pKd", "setting": "[5]; [28]", "result": "below the threshold"}, {"measurement": "pKd", "setting": "[6]; [28]", "result": "below the threshold"}, {"measurement": "pKd", "setting": "[7]; [28]", "result": "below the threshold"}, {"measurement": "pKd", "setting": "[8]; [28]", "result": "below the threshold"}, {"measurement": "pKd", "setting": "[9]; [28]", "result": "below the threshold"}, {"measurement": "pKd", "setting": "[10]; [28]", "result": "below the threshold"}, {"measurement": "pKd", "setting": "[11]; [28]", "result": "below the threshold"}, {"measurement": "pKd", "setting": "[12]; [28]", "result": "below the threshold"}, {"measurement": "pKd", "setting": "[13]; [28]", "result": "below the threshold"}, {"measurement": "pKd", "setting": "[14]; [28]", "result": 3.63}, {"measurement": "pKd", "setting": "[15]; [28]", "result": "below the threshold"}, {"measurement": "pKd", "setting": "[16]; [28]", "result": "below the threshold"}, {"measurement": "pKd", "setting": "[17]; [28]", "result": 4.53}, {"measurement": "pKd", "setting": "[18]; [28]", "result": "below the threshold"}, {"measurement": "pKd", "setting": "[19]; [28]", "result": "below the threshold"}, {"measurement": "pKd", "setting": "[20]; [28]", "result": "below the threshold"}, {"measurement": "pKd", "setting": "[21]; [28]", "result": 5.15}, {"measurement": "pKd", "setting": "[22]; [28]", "result": "below the threshold"}, {"measurement": "pKd", "setting": "[23]; [28]", "result": "below the threshold"}, {"measurement": "pKd", "setting": "[24]; [28]", "result": "below the threshold"}, {"measurement": "pKd", "setting": "[25]; [28]", "result": 3.57}, {"measurement": "pKd", "setting": "[26]; [28]", "result": 4.1}, {"measurement": "pKd", "setting": "[27]; [28]", "result": "below the threshold"}]}
{"binder": "B2", "values": [{"measurement": "pKd", "setting": "[1]; [29]", "result": "below the threshold"}, {"measurement": "pKd", "setting": "[2]; [29]", "result": "below the threshold"}, {"measurement": "pKd", "setting": "[3]; [29]", "result": "below the threshold"}, {"measurement": "pKd", "setting": "[4]; [29]", "result": "below the threshold"}, {"measurement": "pKd", "setting": "[5]; [29]", "result": "below the threshold"}, {"measurement": "pKd", "setting": "[6]; [29]", "result": 3.68}, {"measurement": "pKd", "setting": "[7]; [29]", "result": "below the threshold"}, {"measurement": "pKd", "setting": "[8]; [29]", "result": "below the threshold"}, {"measurement": "pKd", "setting": "[9]; [29]", "result": "below the threshold"}, {"measurement": "pKd", "setting": "[10]; [29]", "result": "below the threshold"}, {"measurement": "pKd", "setting": "[11]; [29]", "result": "below the threshold"}, {"measurement": "pKd", "setting": "[12]; [29]", "result": 3.68}, {"measurement": "pKd", "setting": "[13]; [29]", "result": "below the threshold"}, {"measurement": "pKd", "setting": "[14]; [29]", "result": "below the threshold"}, {"measurement": "pKd", "setting": "[15]; [29]", "result": "below the threshold"}, {"measurement": "pKd", "setting": "[16]; [29]", "result": "below the threshold"}, {"measurement": "pKd", "setting": "[17]; [29]", "result": "below the threshold"}, {"measurement": "pKd", "setting": "[18]; [29]", "result": 3.48}, {"measurement": "pKd", "setting": "[19]; [29]", "result": "below the threshold"}, {"measurement": "pKd", "setting": "[20]; [29]", "result": "below the threshold"}, {"measurement": "pKd", "setting": "[21]; [29]", "result": "below the threshold"}, {"measurement": "pKd", "setting": "[22]; [29]", "result": "below the threshold"}, {"measurement": "pKd", "setting": "[23]; [29]", "result": "below the threshold"}, {"measurement": "pKd", "setting": "[24]; [29]", "result": 4.58}, {"measurement": "pKd", "setting": "[25]; [29]", "result": "below the threshold"}, {"measurement": "pKd", "setting": "[26]; [29]", "result": "below the threshold"}, {"measurement": "pKd", "setting": "[27]; [29]", "result": 3.92}]}
{"binder": "B3", "values": [{"measurement": "pKd", "setting": "[1]; [30]", "result": "below the threshold"}, {"measurement": "pKd", "setting": "[2]; [30]", "result": "below the threshold"}, {"measurement": "pKd", "setting": "[3]; [30]", "result": "below the threshold"}, {"measurement": "pKd", "setting": "[4]; [30]", "result": "below the threshold"}, {"measurement": "pKd", "setting": "[5]; [30]", "result": "below the threshold"}, {"measurement": "pKd", "setting": "[6]; [30]", "result": "below the threshold"}, {"measurement": "pKd", "setting": "[7]; [30]", "result": "below the threshold"}, {"measurement": "pKd", "setting": "[8]; [30]", "result": "below the threshold"}, {"measurement": "pKd", "setting": "[9]; [30]", "result": "below the threshold"}, {"measurement": "pKd", "setting": "[10]; [30]", "result": "below the threshold"}, {"measurement": "pKd", "setting": "[11]; [30]", "result": "below the threshold"}, {"measurement": "pKd", "setting": "[12]; [30]", "result": "below the threshold"}, {"measurement": "pKd", "setting": "[13]; [30]", "result": "below the threshold"}, {"measurement": "pKd", "setting": "[14]; [30]", "result": "below the threshold"}, {"measurement": "pKd", "setting": "[15]; [30]", "result": "below the threshold"}, {"measurement": "pKd", "setting": "[16]; [30]", "result": "below the threshold"}, {"measurement": "pKd", "setting": "[17]; [30]", "result": "below the threshold"}, {"measurement": "pKd", "setting": "[18]; [30]", "result": "below the threshold"}, {"measurement": "pKd", "setting": "[19]; [30]", "result": "below the threshold"}, {"measurement": "pKd", "setting": "[20]; [30]", "result": "below the threshold"}, {"measurement": "pKd", "setting": "[21]; [30]", "result": "below the threshold"}, {"measurement": "pKd", "setting": "[22]; [30]", "result": "below the threshold"}, {"measurement": "pKd", "setting": "[23]; [30]", "result": "below the threshold"}, {"measurement": "pKd", "setting": "[24]; [30]", "result": 3.51}, {"measurement": "pKd", "setting": "[25]; [30]", "result": "below the threshold"}, {"measurement": "pKd", "setting": "[26]; [30]", "result": 4.8}, {"measurement": "pKd", "setting": "[27]; [30]", "result": "below the threshold"}]}
